Target: HLA-A*02:01 (Homo sapiens, UniProt P04439, D140Y/D185E/D98H/E176V/E277Q/G131W/G231S/I119V/I121R/I166T/I218V/L300P/L318F/N151K/N90K/P208A/P217A/Q86G/Q94H/R138H/R169H/T345S)
Assay: MHC binding assay (UV-ligand exchange, beta2m ELISA, peptide exchange yield)
Conditions: binding to HLA-A*02:01 ranged by peptide exchange yield, β2m ELISA
Description: Candidate peptides for T cell based therapies according to the present invention were further tested for their MHC binding capacity (affinity). The individual peptide-MHC complexes were produced by UV-ligand exchange, where a UV-sensitive peptide is cleaved upon UV-irradiation, and exchanged with the peptide of interest as analyzed. Only peptide candidates that can effectively bind and stabilize the peptide-receptive MHC molecules prevent dissociation of the MHC complexes. To determine the yield of the exchange reaction, an ELISA was performed based on the detection of the light chain (β2m) of stabilized MHC complexes. The assay was performed as generally described in Rodenko et al. (Rodenko et al., 2006).
96 well MAXISorp plates (NUNC) were coated over night with 2 ug/ml streptavidin in PBS at room temperature, washed 4× and blocked for 1 h at 37° C. in 2% BSA containing blocking buffer. Refolded HLA-A*02:01/MLA-001 monomers served as standards, covering the range of 15-500 ng/ml. Peptide-MHC monomers of the UV-exchange reaction were diluted 100 fold in blocking buffer. Samples were incubated for 1 h at 37° C., washed four times, incubated with 2 ug/ml HRP conjugated anti-μ2m for 1h at 37° C., washed again and detected with TMB solution that is stopped with […]. Absorption was measured at 450 nm. Candidate peptides that show a high exchange yield (preferably higher than 50%, most preferred higher than 75%) are generally preferred for a generation and production of antibodies or fragments thereof, and/or T cell receptors or fragments thereof, as they show sufficient avidity to the MHC molecules and prevent dissociation of the MHC complexes.
MHC class I binding scores. Binding of HLA-class I restricted peptides to HLA-A*02:01 was ranged by peptide exchange yield: ≥10%=+; ≥20%=++; ≥50=+++; >75%=++++

Substance | Peptide exchange (MHC class I binding score)
4 (ALDPAAQAFLL; listed as Homo sapiens) [compound 4] | “+++” (≥50=+++)
15 (FILANEHNV; listed as Homo sapiens) [compound 15] | “+++” (≥50=+++)
98 (ALDQKVRSV; listed as Homo sapiens) [compound 98] | “++” (≥20%=++)
38 (FLTEAALGDA; listed as Homo sapiens) [compound 38] | “+++” (≥50=+++)
40 (GLAPQIHDL; listed as Homo sapiens) [compound 40] | “++” (≥20%=++)
65 (TLNEKLTAL; listed as Homo sapiens) [compound 65] | “+++” (≥50=+++)
11 (ALYYNPHLL; listed as Homo sapiens) [compound 11] | “++” (≥20%=++)
152 (ALLEPEFILKA; listed as Homo sapiens) [compound 152] | “++++” (>75%=++++)
97 (ALDDMISTL; listed as Homo sapiens) [compound 97] | “+++” (≥50=+++)
106 (FVWSGTAEA; listed as Homo sapiens) [compound 106] | “+++” (≥50=+++)
101 (ALVEENGIFEL; listed as Homo sapiens) [compound 101] | “+++” (≥50=+++)
85 (FLSDGTIISV; listed as Homo sapiens) [compound 85] | “++++” (>75%=++++)
84 (FILPIGATV; listed as Homo sapiens) [compound 84] | “++++” (>75%=++++)
132 (FLWAGGRASYGV; listed as Homo sapiens) [compound 132] | “+++” (≥50=+++)
127 (ALSDLALHFL; listed as Homo sapiens) [compound 127] | “++++” (>75%=++++)
100 (ALFGAGPASI; listed as Homo sapiens) [compound 100] | “+++” (≥50=+++)
55 (NLAPAPLNA; listed as Homo sapiens) [compound 55] | “++” (≥20%=++)
27 (TLLAHPVTL; listed as Homo sapiens) [compound 27] | “+++” (≥50=+++)
59 (SLSESFFMV; listed as Homo sapiens) [compound 59] | “+++” (≥50=+++)
94 (VMMEEFVQL; listed as Homo sapiens) [compound 94] | “+++” (≥50=+++)
157 (MLLEIPYMAA; listed as Homo sapiens) [compound 157] | “+++” (≥50=+++)
87 (GLLPALVAL; listed as Homo sapiens) [compound 87] | “+++” (≥50=+++)

Substance | Peptide exchange (MHC class I binding score)
2 (FGYDGDFYRA; listed as Homo sapiens) [compound 2] | “+++” (≥50=+++)
90 (KLLTPITTL; listed as Homo sapiens) [compound 90] | “+++” (≥50=+++)
158 (SLIEKYFSV; listed as Homo sapiens) [compound 158] | “++++” (>75%=++++)
64 (TLFSEPKFAQV; listed as Homo sapiens) [compound 64] | “++++” (>75%=++++)
7 (ALVDIVRSL; listed as Homo sapiens) [compound 7] | “+++” (≥50=+++)
91 (LLFNDVQTL; listed as Homo sapiens) [compound 91] | “+++” (≥50=+++)
53 (LLWDPSTGKQV; listed as Homo sapiens) [compound 53] | “+++” (≥50=+++)
102 (ALYPGTDYTV; listed as Homo sapiens) [compound 102] | “+++” (≥50=+++)
30 (YIYKDTIQV; listed as Homo sapiens) [compound 30] | “++” (≥20%=++)
113 (LMMSEDRISL; listed as Homo sapiens) [compound 113] | “+++” (≥50=+++)
116 (SMMDPNHFL; listed as Homo sapiens) [compound 116] | “++++” (>75%=++++)
130 (FLFGEEPSKL; listed as Homo sapiens) [compound 130] | “+++” (≥50=+++)
3 (ILIGETIKI; listed as Homo sapiens) [compound 3] | “+++” (≥50=+++)
41 (GLLAGNEKLTM; listed as Homo sapiens) [compound 41] | “++” (≥20%=++)
36 (FLGDLSHLL; listed as Homo sapiens) [compound 36] | “++” (≥20%=++)
52 (LLSDPIPEV; listed as Homo sapiens) [compound 52] | “+++” (≥50=+++)
126 (ALLSLDPAAV; listed as Homo sapiens) [compound 126] | “++++” (>75%=++++)
137 (KLGPEGELL; listed as Homo sapiens) [compound 137] | “+++” (≥50=+++)
103 (AVAAVLTQV; listed as Homo sapiens) [compound 103] | “+++” (≥50=+++)
42 (ILSDMRSQYEV; listed as Homo sapiens) [compound 42] | “+++” (≥50=+++)
31 (YLDSMYIML; listed as Homo sapiens) [compound 31] | “+++” (≥50=+++)
119 (VLGDDPQLMKV; listed as Homo sapiens) [compound 119] | “+++” (≥50=+++)

Substance | Peptide exchange (MHC class I binding score)
26 (SLYTALTEA; listed as Homo sapiens) [compound 26] | “+++” (≥50=+++)
146 (VLISGVVHEI; listed as Homo sapiens) [compound 146] | “+++” (≥50=+++)
147 (YAFPKAVSV; listed as Homo sapiens) [compound 147] | “++” (≥20%=++)
134 (ILLAEGRLVNL; listed as Homo sapiens) [compound 134] | “+++” (≥50=+++)
29 (YILPFSEVL; listed as Homo sapiens) [compound 29] | “++++” (>75%=++++)
23 (KLDSSGGAVQL; listed as Homo sapiens) [compound 23] | “++” (≥20%=++)
88 (IIDDTIFNL; listed as Homo sapiens) [compound 88] | “+++” (≥50=+++)
19 (ALWHDAENQTVV; listed as Homo sapiens) [compound 19] | “+++” (≥50=+++)
114 (SLFPHNPQFI; listed as Homo sapiens) [compound 114] | “+++” (≥50=+++)
12 (AQYKFVYQV; listed as Homo sapiens) [compound 12] | “+++” (≥50=+++)
32 (YVDDGLISL; listed as Homo sapiens) [compound 32] | “++” (≥20%=++)
83 (ALSKEIYVI; listed as Homo sapiens) [compound 83] | “+++” (≥50=+++)
45 (ILYSDDGQKWTV; listed as Homo sapiens) [compound 45] | “+++” (≥50=+++)
142 (SLYGYLRGA; listed as Homo sapiens) [compound 142] | “+++” (≥50=+++)
58 (RQYPWGVVQV; listed as Homo sapiens) [compound 58] | “++” (≥20%=++)
118 (TLWYRPPEL; listed as Homo sapiens) [compound 118] | “+++” (≥50=+++)
160 (VLLPDERTISL; listed as Homo sapiens) [compound 160] | “++++” (>75%=++++)
141 (SLTEQVHSL; listed as Homo sapiens) [compound 141] | “+++” (≥50=+++)
18 (ALFVRLLAL; listed as Homo sapiens) [compound 18] | “++” (≥20%=++)
96 (ALAPATGGGSLLL; listed as Homo sapiens) [compound 96] | “+++” (≥50=+++)
122 (MQAPRAALVFA; listed as Homo sapiens) [compound 122] | “++++” (>75%=++++)
115 (SLMDPNKFLLL; listed as Homo sapiens) [compound 115] | “+++” (≥50=+++)

From patent US11485769B2, “Peptides and combination of peptides for use in immunotherapy and methods for generating scaffolds for the use against pancreatic cancer and other cancers” (Immatics Biotechnologies GmbH, priority 2015, dated 2022)
